In the supplement of paper PMC5998384:

Assays:
[1] = tested on: HeLa Kyoto; test: solubility change mitosis vs G1/S (difference of NP-40 vs SDS log2 ratios) (log2 ratio difference); higher = more soluble in mitosis
[2] = tested on: HeLa Kyoto; test: solubility in G1/S (NP-40 vs SDS abundance) (log2 ratio); higher = more soluble; details: cell cycle stage: G1/S
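Wherever solubility change mitosis vs G1/S (difference of NP-40 vs SDS log2 ratios) is given: synchronized HeLa Kyoto cells (double thymidine block for G1/S, nocodazole release for mitosis), protein amounts in NP-40 versus SDS lysates quantified by mass spectrometry, three biological replicates.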
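Wherever solubility in G1/S (NP-40 vs SDS abundance) is given: HeLa Kyoto cells arrested at G1/S by double thymidine block, proteins quantified by TMT10plex mass spectrometry in mild NP-40 versus SDS extracts, three biological replicates.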

For “MRFAWTVLLLGPLQLCALVHCAPPAAGQQQPPREPPAAPGAWRQQIQWENNGQVFSLLSLGSQYQPQRRRDPGAAVPGAANASAQQPRTPILLIRDNRTAAARTRTAGSSGVTAGRPRPTARHWFQAGYSTSRAREAGASRAENQTAPGEVPALSNLRPPSRVDGMVGDDPYNPYKYSDDNPYYNYYDTYERPRPGGRYRPGYGTGYFQYGLPDLVADPYYIQASTYVQKMSMYNLRCAAEENCLASTAYRADVRDYDHRVLLRFPQRVKNQGTSDFLPSRPRYSWEWHSCHQHYHSMDEFSHYDLLDANTQRRVAEGHKASFCLEDTSCDYGYHRRFACTAHTQGLSPGCYDTYGADIDCQWIDITDVKPGNYILKVSVNPSYLVPESDYTNNVVRCDIRYTGHHAYASGCTISPY [LOX]”, the “solubility change mitosis (log2)” value [1] was 0.257 and the “solubility in G1/S (log2)” value [2] was -0.354.

“MAEIIQERIEDRLPELEQLERIGLFSHAEIKAIIKKASDLEYKIQRRTLFKEDFINYVQYEINLLELIQRRRTRIGYSFKKDEIENSIVHRVQGVFQRASAKWKDDVQLWLSYVAFCKKWATKTRLSKVFSAMLAIHSNKPALWIMAAKWEMEDRLSSESARQLFLRALRFHPECPKLYKEYFRMELMHAEKLRKEKEEFEKASMDVENPDYSEEILKGELAWIIYKNSVSIIKGAEFHVSLLSIAQLFDFAKDLQKEIYDDLQALHTDDPLTWDYVARRELEIESQTEEQPTTKQAKAVEVGRKEERCCAVYEEAVKTLPTEAMWKCYITFCLERFTKKSNSGFLRGKRLERTMTVFRKAHELKLLSECQYKQLSVSLLCYNFLREALEVAVAGTELFRDSGTMWQLKLQVLIESKSPDIAMLFEEAFVHLKPQVCLPLWISWAEWSEGAKSQEDTEAVFKKALLAVIGADSVTLKNKYLDWAYRSGGYKKARAVFKSLQESRPFSVDFFRKMIQFEKEQESCNMANIREYYERALREFGSADSDLWMDYMKEELNHPLGRPENCGQIYWRAMKMLQGESAEAFVAKHAMHQTGHL [UTP6]” was tested, and the “solubility change mitosis (log2)” value [1] was 0.707 and the “solubility in G1/S (log2)” value [2] was -2.05.

With “MGVDFDVKTFCHNLRATKPPYECPVETCRKVYKSYSGIEYHLYHYDHDNPPPPQQTPLRKHKKKGRQSRPANKQSPSPSEVSQSPGREVMSYAQAQRMVEVDLHGRVHRISIFDNLDVVSEDEEAPEEAPENGSNKENTETPAATPKSGKHKNKEKRKDSNHHHHHNVSASTTPKLPEVVYRELEQDTPDAPPRPTSYYRYIEKSAEELDEEVEYDMDEEDYIWLDIMNERRKTEGVSPIPQEIFEYLMDRLEKESYFESHNKGDPNALVDEDAVCCICNDGECQNSNVILFCDMCNLAVHQECYGVPYIPEGQWLCRRCLQSPSRAVDCALCPNKGGAFKQTDDGRWAHVVCALWIPEVCFANTVFLEPIDSIEHIPPARWKLTCYICKQRGSGACIQCHKANCYTAFHVTCAQQAGLYMKMEPVRETGANGTSFSVRKTAYCDIHTPPGSARRLPALSHSEGEEDEDEEEDEGKGWSSEKVKKAKAKSRIKMKKARKILAEKRAAAPVVSVPCIPPHRLSKITNRLTIQRKSQFMQRLHSYWTLKRQSRNGVPLLRRLQTHLQSQRNCDQVGRDSEDKNWALKEQLKSWQRLRHDLERARLLVELIRKREKLKRETIKVQQIAMEMQLTPFLILLRKTLEQLQEKDTGNIFSEPVPLSEVPDYLDHIKKPMDFFTMKQNLEAYRYLNFDDFEEDFNLIVSNCLKYNAKDTIFYRAAVRLREQGGAVLRQARRQAEKMGIDFETGMHIPHSLAGDEATHHTEDAAEEERLVLLENQKHLPVEEQLKLLLERLDEVNASKQSVGRSRRAKMIKKEMTALRRKLAHQRETGRDGPERHGPSSRGSLTPHPAACDKDGQTDSAAEESSSQETSKGLGPNMSSTPAHEVGRRTSVLFSKKNPKTAGPPKRPGRPPKNRESQMTPSHGGSPVGPPQLPIMSSLRQRKRGRSPRPSSSSDSDSDKSTEDPPMDLPANGFSGGNQPVKKSFLVYRNDCSLPRSSSDSESSSSSSSSAASDRTSTTPSKQGRGKPSFSRGTFPEDSSEDTSGTENEAYSVGTGRGVGHSMVRKSLGRGAGWLSEDEDSPLDALDLVWAKCRGYPSYPALIIDPKMPREGMFHHGVPIPVPPLEVLKLGEQMTQEAREHLYLVLFFDNKRTWQWLPRTKLVPLGVNQDLDKEKMLEGRKSNIRKSVQIAYHRALQHRSKVQGEQSSETSDSD [BRPF1]” the “solubility change mitosis (log2)” value [1] was 0.44 and the “solubility in G1/S (log2)” value [2] was -1.3.

In the case of “MAAAFRKAAKSRQREHRERSQPGFRKHLGLLEKKKDYKLRADDYRKKQEYLKALRKKALEKNPDEFYYKMTRVKLQDGVHIIKETKEEVTPEQLKLMRTQDVKYIEMKRVAEAKKIERLKSELHLLDFQGKQQNKHVFFFDTKKEVEQFDVATHLQTAPELVDRVFNRPRIETLQKEKVKGVTNQTGLKRIAKERQKQYNCLTQRIEREKKLFVIAQKIQTRKDLMDKTQKVKVKKETVNSPAIYKFQSRRKR [UTP11L]”, the “solubility change mitosis (log2)” value [1] was 1.5 and the “solubility in G1/S (log2)” value [2] was -2.71.

With PEAK1 the “solubility change mitosis (log2)” value [1] was 0.302 and the “solubility in G1/S (log2)” value [2] was -0.569.

For “MEPKVAELKQKIEDTLCPFGFEVYPFQVAWYNELLPPAFHLPLPGPTLAFLVLSTPAMFDRALKPFLQSCHLRMLTDPVDQCVAYHLGRVRESLPELQIEIIADYEVHPNRRPKILAQTAAHVAGAAYYYQRQDVEADPWGNQRISGVCIHPRFGGWFAIRGVVLLPGIEVPDLPPRKPHDCVPTRADRIALLEGFNFHWRDWTYRDAVTPQERYSEEQKAYFSTPPAQRLALLGLAQPSEKPSSPSPDLPFTTPAPKKPGNPSRARSWLSPRVSPPASPGP [MMACHC]”, the “solubility change mitosis (log2)” value [1] was 0.0886 and the “solubility in G1/S (log2)” value [2] was 0.0435.

In the case of “MAAAEEGCSVGAEADRELEELLESALDDFDKAKPSPAPPSTTTAPDASGPQKRSPGDTAKDALFASQEKFFQELFDSELASQATAEFEKAMKELAEEEPHLVEQFQKLSEAAGRVGSDMTSQQEFTSCLKETLSGLAKNATDLQNSSMSEEELTKAMEGLGMDEGDGEGNILPIMQSIMQNLLSKDVLYPSLKEITEKYPEWLQSHRESLPPEQFEKYQEQHSVMCKICEQFEAETPTDSETTQKARFEMVLDLMQQLQDLGHPPKELAGEMPPGLNFDLDALNLSGPPGASGEQCLIM [PEX19]”, the “solubility change mitosis (log2)” value [1] was 0.402 and the “solubility in G1/S (log2)” value [2] was -0.302.

In the case of “MQAKKRYFILLSAGSCLALLFYFGGLQFRASRSHSRREEHSGRNGLHHPSPDHFWPRFPDALRPFVPWDQLENEDSSVHISPRQKRDANSSIYKGKKCRMESCFDFTLCKKNGFKVYVYPQQKGEKIAESYQNILAAIEGSRFYTSDPSQACLFVLSLDTLDRDQLSPQYVHNLRSKVQSLHLWNNGRNHLIFNLYSGTWPDYTEDVGFDIGQAMLAKASISTENFRPNFDVSIPLFSKDHPRTGGERGFLKFNTIPPLRKYMLVFKGKRYLTGIGSDTRNALYHVHNGEDVVLLTTCKHGKDWQKHKDSRCDRDNTEYEKYDYREMLHNATFCLVPRGRRLGSFRFLEALQAACVPVMLSNGWELPFSEVINWNQAAVIGDERLLLQIPSTIRSIHQDKILALRQQTQFLWEAYFSSVEKIVLTTLEIIQDRIFKHISRNSLIWNKHPGGLFVLPQYSSYLGDFPYYYANLGLKPPSKFTAVIHAVTPLVSQSQPVLKLLVAAAKSQYCAQIIVLWNCDKPLPAKHRWPATAVPVVVIEGESKVMSSRFLPYDNIITDAVLSLDEDTVLSTTEVDFAFTVWQSFPERIVGYPARSHFWDNSKERWGYTSKWTNDYSMVLTGAAIYHKYYHYLYSHYLPASLKNMVDQLANCEDILMNFLVSAVTKLPPIKVTQKKQYKETMMGQTSRASRWADPDHFAQRQSCMNTFASWFGYMPLIHSQMRLDPVLFKDQVSILRKKYRDIERL [EXT1]”, the “solubility change mitosis (log2)” value [1] was -0.163 and the “solubility in G1/S (log2)” value [2] was -0.14.

For “MCCEKWSRVAEMFLFIEEREDCKILCLCSRAFVEDRKLYNLGLKGYYIRDSGNNSGDQATEEEEGGYSCGTAESHDSKGIGLDESELDSEAELMRSMGLPLQFGRITAHKDFEVSMNTRNKVKIKKKKHQKKYLDEIVQESWRKEYEEDDILASDDPSSIEQYENTRTYELQSKKDTETENPPVENTLSPKLEITEKWEKYWNEYGGGLLWQSWQEKHPGQALSSEPWNFPDTKEEWEQHYSQLYWYYLEQFQYWEAQGWTFDASQSCDTDTYTSKTEADDKNDEKCMKVDLVSFPSSPIMVDNDSSGTSDKDHSEILDGISNIKLNSEEVTQSQLDSCTSHDGHQQLSEVSSKRECPASGQSEPRNGGTNEESNSSGNTNTDPPAEDSQKSSGANTSKDRPHASGTDGDESEEDPPEHKPSKLKRSHELDIDENPASDFDDSGSLLGFKYGSGQKYGGIPNFSHRQVRYLEKNVKLKSKYLDMRRQIKMKNKHIFFTKESEKPFFKKSKILSKVEKFLTWVNKPMDEEASQESSSHDNVHDASTSSDSEEQDMSVKKGDDLLETNNPEPEKCQSVSSAGELETENYERDSLLATVPDEQDCVTQEVPDSRQAETEAEVKKKKNKKKNKKVNGLPPEIAAVPELAKYWAQRYRLFSRFDDGIKLDREGWFSVTPEKIAEHIAGRVSQSFKCDVVVDAFCGVGGNTIQFALTGMRVIAIDIDPVKIALARNNAEVYGIADKIEFICGDFLLLASFLKADVVFLSPPWGGPDYATAETFDIRTMMSPDGFEIFRLSKKITNNIVYFLPRNADIDQVASLAGPGGQVEIEQNFLNNKLKTITAYFGDLIRRPASET [TGS1]”, the “solubility change mitosis (log2)” value [1] was 0.247 and the “solubility in G1/S (log2)” value [2] was 0.102.

In the case of ALMS1, the “solubility change mitosis (log2)” value [1] was 0.225 and the “solubility in G1/S (log2)” value [2] was 0.395.

With “MAVTEASLLRQCPLLLPQNRSKTVYEGFISAQGRDFHLRIVLPEDLQLKNARLLCSWQLRTILSGYHRIVQQRMQHSPDLMSFMMELKMLLEVALKNRQELYALPPPPQFYSSLIEEIGTLGWDKLVYADTCFSTIKLKAEDASGREHLITLKLKAKYPAESPDYFVDFPVPFCASWTPQSSLISIYSQFLAAIESLKAFWDVMDEIDEKTWVLEPEKPPRSATARRIALGNNVSINIEVDPRHPTMLPECFFLGADHVVKPLGIKLSRNIHLWDPENSVLQNLKDVLEIDFPARAILEKSDFTMDCGICYAYQLDGTIPDQVCDNSQCGQPFHQICLYEWLRGLLTSRQSFNIIFGECPYCSKPITLKMSGRKH [FANCL]” the “solubility change mitosis (log2)” value [1] was 0.0266 and the “solubility in G1/S (log2)” value [2] was 0.184.

With “MADVEDGEETCALASHSGSSGSKSGGDKMFSLKKWNAVAMWSWDVECDTCAICRVQVMDACLRCQAENKQEDCVVVWGECNHSFHNCCMSLWVKQNNRCPLCQQDWVVQRIGK [RNF7]” the “solubility change mitosis (log2)” value [1] was -0.169 and the “solubility in G1/S (log2)” value [2] was -0.165.

“MLLSVTSRPGISTFGYNRNNKKPYVSLAQQMAPPSPSNSTPNSSSGSNGNDQLSKTNLYIRGLQPGTTDQDLVKLCQPYGKIVSTKAILDKTTNKCKGYGFVDFDSPSAAQKAVTALKASGVQAQMAKQQEQDPTNLYISNLPLSMDEQELEGMLKPFGQVISTRILRDTSGTSRGVGFARMESTEKCEAIITHFNGKYIKTPPGVPAPSDPLLCKFADGGPKKRQNQGKFVQNGRAWPRNADMGVMALTYDPTTALQNGFYPAPYNITPNRMLAQSALSPYLSSPVSSYQRVTQTSPLQVPNPSWMHHHSYLMQPSGSVLTPGMDHPISLQPASMMGPLTQQLGHLSLSSTGTYMPTAAAMQGAYISQYTPVPSSSVSVEESSGQQNQVAVDAPSEHGVYSFQFNK [RBMS2]” was tested, and the “solubility change mitosis (log2)” value [1] was 0.0678 and the “solubility in G1/S (log2)” value [2] was 0.474.
